The results in this text go back to PMC13134614, “In vitro liquid-liquid phase separation induced by respiratory syncytial virus proteins and RNA” (Science Advances, 2025).

For series [1], the target named is T1, M2-1 (Respiratory syncytial virus, UniProt P04545 1-194).
T1 sequence: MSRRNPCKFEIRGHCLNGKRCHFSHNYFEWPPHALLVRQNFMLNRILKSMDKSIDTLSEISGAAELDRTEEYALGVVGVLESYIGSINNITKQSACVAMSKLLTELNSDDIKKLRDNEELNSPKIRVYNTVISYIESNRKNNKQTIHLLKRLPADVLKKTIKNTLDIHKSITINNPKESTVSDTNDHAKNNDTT
Briefly: EMSA (native agarose gel, Amido black protein stain); 10 uM protein, 15 uM RNA; clear band shift; EMSA: 20 mM Tris pH 8, 150 mM NaCl, 30 min room temperature, 1% native agarose in 1X Tris-glycine; PhaseScan: 20 mM Tris-HCl pH 7.4, 150 mM NaCl, no crowding agent. Particulars: protein: recombinant; tags: GST fusion vector pGEX-M2-1; chain copies: 4; single strand.

The target in series [2] is T2, RSV nucleoprotein N fused to mCherry (N-mCherry), N rings (respiratory syncytial virus (RSV), UniProt P03418 1-391).
T2 construct: Nucleoprotein N of respiratory syncytial virus, 391 residues; from the plasmid pET-mCherry-N; The results call the sample of the MDS experiment 'N rings' (N-RNA oligomers holding bacterial RNA); The plasmid is named pET-mCherry-N, the methods of MDS say 'N-mCherry', so the end of mCherry is open; source: E. coli BL21 (DE3), purified (gel filtration)
T2 sequence (looked up): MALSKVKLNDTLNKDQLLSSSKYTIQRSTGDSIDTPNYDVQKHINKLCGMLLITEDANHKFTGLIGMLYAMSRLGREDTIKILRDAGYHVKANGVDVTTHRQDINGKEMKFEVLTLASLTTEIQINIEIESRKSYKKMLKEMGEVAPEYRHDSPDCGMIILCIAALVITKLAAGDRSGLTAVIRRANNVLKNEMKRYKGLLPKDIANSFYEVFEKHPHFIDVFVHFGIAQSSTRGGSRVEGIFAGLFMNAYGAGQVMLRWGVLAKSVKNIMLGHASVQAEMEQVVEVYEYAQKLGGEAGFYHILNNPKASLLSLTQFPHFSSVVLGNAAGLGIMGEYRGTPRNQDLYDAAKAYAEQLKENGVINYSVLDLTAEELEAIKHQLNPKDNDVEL
Briefly: microfluidic diffusional sizing (MDS); 0.5 μM N-mCherry with increasing concentrations of unlabeled P or P domains, incubated 30 min in the dark; 150 mM NaCl, 20 mM tris pH 7.4; hydrodynamic radius of N in triplicate, Fluidity One-M. Particulars: both partners purified.

In series [3] the target is T1, M2-1. Briefly: EMSA (native agarose gel, Amido black protein stain); 10 uM protein, 15 uM RNA; no band shift (none or too weak to detect); EMSA: 20 mM Tris pH 8, 150 mM NaCl, 30 min room temperature, 1% native agarose in 1X Tris-glycine; PhaseScan: 20 mM Tris-HCl pH 7.4, 150 mM NaCl, no crowding agent. The following applies: protein: recombinant; tags: GST fusion vector pGEX-M2-1; chain copies: 4; single strand. Background: In EMSA bound probe runs differently from free probe, usually more slowly.

B1: 5' cap 7-mer RNA (ssRNA)
RNA: AGCGUAC
modifications: 5' cap (7mGppp, 2'-O-methyl on first nucleotide as generally described); cap G not counted in strand
Consider B1, for which the binding result with M2-1 [1] was “binds”.

B2: RSV phosphoprotein P residues 127-241 (domain or fragment, respiratory syncytial virus (RSV), UniProt P03421 127-241, looked up)
chain: TNDNITARLDRIDEKLSEILGMLHTLVVASAGPTSARDGIRDAMIGLREEMIEKIRTEALMTNDRLEAMARLRNEESEKMAKDTSDEVSLNPTSEKLNNLLEGNDSDNDLSLEDF
notes: Holds the tetramerization domain POD (131 to 151); source: E. coli BL21 (DE3), purified (gel filtration)
As usually defined, the Kd is the free concentration of one partner at which half of the binding sites on the other are occupied at equilibrium, for simple one-to-one binding. A low value points to higher affinity. With B2, the Kd in series [2] worked out at 2600 ± 900 nM.

For the molecule AGCGUAC (ssRNA, 5' OH) [5' OH 7-mer RNA], the binding result with M2-1 [3] was “no binding”.
